Measured values as given in paper PMC8959893, “T-Cell Responses to Immunodominant Listeria Epitopes Limit Vaccine-Directed Responses to the Colorectal Cancer Antigen, Guanylyl Cyclase C” (Frontiers in Immunology, 2022).

Target: T1, peptide-H-2K^d complex (Mus musculus, UniProt P01902)
T1 construct: expressed in transfected cells; host or cells: RMA-S (TAP-deficient), stably expressing H-2K^d; provided by Dr. Sean Murphy (University of Washington)
T1 sequence (P01902 22-368): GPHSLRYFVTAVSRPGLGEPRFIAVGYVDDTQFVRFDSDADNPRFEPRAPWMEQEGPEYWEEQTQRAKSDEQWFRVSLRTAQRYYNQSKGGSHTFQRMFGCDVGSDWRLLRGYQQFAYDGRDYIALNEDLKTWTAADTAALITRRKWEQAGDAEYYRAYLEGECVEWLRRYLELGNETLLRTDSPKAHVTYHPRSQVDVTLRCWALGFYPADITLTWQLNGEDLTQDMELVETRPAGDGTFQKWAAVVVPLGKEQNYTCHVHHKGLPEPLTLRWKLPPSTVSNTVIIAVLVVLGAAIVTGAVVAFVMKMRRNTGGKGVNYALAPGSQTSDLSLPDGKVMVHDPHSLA
T1 sequence (P01887 21-119 partner): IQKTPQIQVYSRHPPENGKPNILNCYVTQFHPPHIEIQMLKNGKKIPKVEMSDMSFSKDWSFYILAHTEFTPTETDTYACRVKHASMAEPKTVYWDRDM
Assay type: cell-based
Details: for half-life (t1/2) of peptide-H-2K^d complex: Figure 4D, flow cytometry MFI, nonlinear regression of two experiments
Protocol: As previously described ([27]), RMA-S-H-2K^d cells were incubated overnight at 26°C with 30 ug/mL of each peptide. In the morning, cells were incubated 2 h at 37°C, washed 3x with PBS to remove unbound peptide, and incubated an additional 2, 4, or 6 h at 37°C. Cells were then stained with anti-H-2K^d-PE antibody (Invitrogen, Clone SF1-1.1.1), and surface H-2K^d was quantified as mean fluorescence intensity (MFI) by flow cytometry. The percent change in surface peptide-H-2K^d complexes was calculated using the formula, MFI^peptide−MFI^no peptide/MFI^0 hrs−MFI^no peptide×100 ([28]). The t1/2 for the peptide-MHC complex was calculated by nonlinear regression.

[1] = RMA-S-H-2K^d cells, 30 ug/mL peptide overnight at 26°C, 2 h at 37°C, washed, additional 2, 4 or 6 h at 37°C

| Substance | half-life (t1/2) of peptide-H-2K^d complex [1] [h] | Dissociation from MHC, fold faster than Lm-derived peptide-H-2K^d complexes (Figure 3, stated in Discussion) [fold] | t1/2 of peptide-H-2K^d complex (Figure 3C, RMA-S-H-2K^d cells, 30 ug/mL peptide overnight at 26°C, 2 h at 37°C, washed, additional 2, 4 or 6 h at 37°C, anti-H-2K^d-PE MFI by flow cytometry, nonlinear regression, representative of two experiments) [h] |
| --- | --- | --- | --- |
| GUCY2CL262I: GUCY2C254-262 peptide variant with L262I point mutation at an H-2K^d anchoring residue (SFYDVKGDI; UniProt Q3UWA6 254-262, looked up, variant L262I) | 1.0 | – | – |
| GUCY2CF255Y: GUCY2C254-262 peptide variant with F255Y point mutation at an H-2K^d anchoring residue (SYYDVKGDL; UniProt Q3UWA6 254-262, looked up, variant F255Y) | 8.3 | – | – |
| GUCY2C254-262: dominant H-2K^d-restricted CD8+ T-cell epitope of mouse guanylyl cyclase C, residues 254-262 (SFYDVKGDL; UniProt Q3UWA6 254-262, looked up, fragment) | 2.1 | > 5 | 1.8 |
